How the values were obtained:
[1] = biological target: Full-length plasma gelsolin Gly167Arg (human) (UniProt P06396); experiment: SEC-MALS; 200 µl of 4 mg/ml Gly167Arg GSN separated by gel filtration without calcium, on-line MALS, dn/dc 0.185
[2] = biological target: Gelsolin G2 domain (amino acids 151–266) carrying the Gly167Arg mutation (human) (UniProt P06396); experiment: dynamic light scattering; 1 mg/ml monomer in 20 mM HEPES pH 7.4, 0.3 M NaCl, 1 mM EDTA, incubated at 4 °C; hydrodynamic radius against time, measured at 4 °C; monomer to dimer, pseudo-first-order fit
[3] = biological target: Gelsolin G2 domain (amino acids 151–266) carrying the Gly167Arg mutation (human) (UniProt P06396); experiment: SEC; analytical gel filtration, Superdex 75 Increase 10/300 GL; 0.5 mg/ml isolated dimer or monomer incubated in 20 mM HEPES pH 7.4, 0.3 M NaCl with 1 mM CaCl2 at 4 °C, 1 mM CaCl2 at 25 °C or 1 mM EDTA at 4 °C; time course
[4] = biological target: Gelsolin G2 domain (amino acids 151–266) carrying the Gly167Arg mutation (human) (UniProt P06396); experiment: dynamic light scattering; 1 mg/ml monomer in 20 mM HEPES pH 7.4, 0.3 M NaCl, 1 mM CaCl2, incubated at 25 °C; hydrodynamic radius against time, measured at 4 °C; monomer to dimer, pseudo-first-order fit

stoichiometry N [1] | pseudo-first-order rate constant k of the conversion of monomers to dimers [2] [h⁻¹] | fraction of dimers at equilibrium [3] [%] | pseudo-first-order rate constant k of the conversion of monomers to dimers [4] [h⁻¹] | Substance
2 |  |  |  | Full-length plasma gelsolin Gly167Arg (from UniProt P06396 26-782) (natural protein)
 | 2.1 | 50 | 0.6 | Gelsolin G2 domain (amino acids 151–266) carrying the Gly167Arg mutation (from UniProt P06396 178-293) (domain or fragment)
